Measurements taken from the Human Domainome abundance scans (Beltran et al. 2025).
± gives the uncertainty stated by the source.

B1: RAS guanyl-releasing protein 1, residues 539 to 593; numbered along this chain, O95267 (parent)
chain: GFPHNFQETTYLKPTFCDNCAGFLWGVIKQGYRCKDCGMNCHKQCKDLVVFECKK
B2: Zinc finger homeobox protein 4, residues 2562 to 2617; numbered along this chain, Q86UP3 (parent)
chain: RLRTTITPEQLEILYEKYLLDSNPTRKMLDHIAREVGLKKRVVQVWFQNTRARERK

Variants of: B1
Test: abundance fitness (aPCA) (normalised: wild type 0, dead -1); higher = more abundant; growth selection in yeast, the domain comes from the species named
Settings: Homo sapiens

Abundance fitness, by site and new letter:
H4: P -0.915 ± 0.13 | A -0.878 ± 0.17 | V -0.947 ± 0.078 | D -0.595 ± 0.063 | N -0.708 ± 0.1 | M -0.335 ± 0.12 | Q -0.804 ± 0.16 | K -0.243 ± 0.11
C20: D -0.541 ± 0.096 | E -0.931 ± 0.2 | A -1.01 ± 0.089 | G -1.12 ± 0.081
C17: S -0.948 ± 0.18 | H -0.784 ± 0.26 | P -1.13 ± 0.33 | L -1.26 ± 0.27 | A -1.09 ± 0.09 | T -0.821 ± 0.37 | D -0.986 ± 0.12 | M -0.578 ± 0.1 | E -0.826 ± 0.4 | R -0.851 ± 0.15 | I -0.869 ± 0.31 | F -1.14 ± 0.24 | V -0.878 ± 0.12 | G -0.99 ± 0.27 | Q -0.755 ± 0.1 | W -1.27 ± 0.34
D18: P -0.732 ± 0.12 | H -0.383 ± 0.27 | L -0.013 ± 0.095 | M -0.079 ± 0.096 | K -0.017 ± 0.12 | S 0.028 ± 0.084 | G -0.294 ± 0.086 | Y -0.315 ± 0.17 | V -0.132 ± 0.088 | T 0.205 ± 0.07 | F -0.063 ± 0.099 | A -0.016 ± 0.088 | R -0.059 ± 0.084 | W 0.123 ± 0.11 | I -0.142 ± 0.09 | N -0.026 ± 0.096 | C -0.253 ± 0.1 | Q -0.001 ± 0.07 | E -0.087 ± 0.074
F6: D -0.788 ± 0.26 | E -0.551 ± 0.2 | H -0.319 ± 0.091 | N -0.29 ± 0.13 | M -0.01 ± 0.14 | S -0.252 ± 0.071 | W -0.667 ± 0.22 | Q -0.309 ± 0.12 | G -0.627 ± 0.093 | T -0.436 ± 0.14 | L -0.138 ± 0.078 | A -0.267 ± 0.062 | V -0.06 ± 0.044 | K -0.647 ± 0.17 | Y -0.093 ± 0.091 | I -0.269 ± 0.25 | R -0.574 ± 0.091 | P -0.477 ± 0.097 | C -0.132 ± 0.12
Q7: E -0.073 ± 0.076 | H -0.096 ± 0.14 | R -0.123 ± 0.068 | V -0.197 ± 0.061 | S -0.127 ± 0.075 | I -0.217 ± 0.15 | K -0.484 ± 0.15 | T -0.236 ± 0.11 | P -0.961 ± 0.32 | D -0.204 ± 0.14 | G -0.116 ± 0.068 | A -0.027 ± 0.065 | Y -0.151 ± 0.14 | L -0.149 ± 0.079 | C -0.366 ± 0.19 | N 0.016 ± 0.12 | M 0.028 ± 0.097
N19: C -0.061 ± 0.093 | R -0.036 ± 0.06 | A 0.065 ± 0.084 | M 0.135 ± 0.11 | D -0.101 ± 0.11 | Y -0.142 ± 0.084 | G 0.134 ± 0.051 | L -0.018 ± 0.084 | H -0.02 ± 0.12 | Q -0.29 ± 0.17 | W 0.082 ± 0.057 | S 0.05 ± 0.062 | V -0.02 ± 0.062 | F 0.068 ± 0.094 | K -0.052 ± 0.075 | E 0.11 ± 0.1 | T -0.043 ± 0.056 | I -0.163 ± 0.17
N5: S -0.066 ± 0.071 | G -0.075 ± 0.054 | L -0.026 ± 0.053 | I -0.039 ± 0.082 | Q -0.051 ± 0.093 | C -0.23 ± 0.079 | D -0.104 ± 0.17 | E -0.098 ± 0.12 | F -0.226 ± 0.19 | W -0.14 ± 0.083 | T -0.026 ± 0.085 | M -0.018 ± 0.089 | Y -0.459 ± 0.21 | A -0.141 ± 0.077 | K -0.157 ± 0.11 | P -0.403 ± 0.12 | H 0.001 ± 0.092 | V -0.218 ± 0.079 | R -0.169 ± 0.077
P14: E -0.886 ± 0.18 | A -0.253 ± 0.09 | H -0.687 ± 0.12 | G -0.449 ± 0.07 | W -0.108 ± 0.076 | D -0.38 ± 0.12 | N -0.931 ± 0.35 | Q -1 ± 0.31 | V -0.384 ± 0.082 | C -0.235 ± 0.049 | T -0.767 ± 0.15 | L -0.296 ± 0.075 | R -0.739 ± 0.065 | K -0.672 ± 0.17 | I -0.647 ± 0.24 | F -0.364 ± 0.18 | Y -0.397 ± 0.071
T10: A -0.408 ± 0.12 | Y -0.291 ± 0.081 | S -0.092 ± 0.046 | V -0.95 ± 0.17 | K -0.456 ± 0.17 | N -0.311 ± 0.13 | G -0.208 ± 0.068 | L -0.426 ± 0.052 | Q -0.357 ± 0.093 | E -0.925 ± 0.15 | P -0.605 ± 0.13 | F -0.045 ± 0.37 | M -0.682 ± 0.24 | W -0.073 ± 0.071 | R -0.494 ± 0.073 | I -0.576 ± 0.1 | H -0.364 ± 0.15

Variants of: B2
Test: as above
Settings: Homo sapiens

Abundance fitness: each site, then its substitutions
K56: A -0.241 ± 0.46 | M -0.023 ± 0.3 | G 0.184 ± 0.34 | E 0.273 ± 0.17 | V -0.282 ± 0.37 | I -0.305 ± 0.5 | T 0.267 ± 0.15 | S -0.043 ± 0.14 | D 0.085 ± 0.34 | R -0.701 ± 0.26
R55: W -0.114 ± 0.076 | Y 0.05 ± 0.45 | V 0.276 ± 0.083
